Experimental data taken from PMC5214978 (Structure (London, England : 1993), 2016).
Values joined by “and” are separate entries in the source; they are usually repeats but may differ in a detail not shown here. Equal entries are not always repeated.

Target: the molecule itself
Assay: cross-linking

B1: Anion exchanger 1 (AE1) (natural protein, human (endogenous in erythrocytes), UniProt P02730 1-911, looked up)
chain: MEELQDDYEDMMEENLEQEEYEDPDIPESQMEEPAAHDTEATATDYHTTSHPGTHKVYVELQELVMDEKNQELRWMEAARWVQLEENLGENGAWGRPHLSHLTFWSLLELRRVFTKGTVLLDLQETSLAGVANQLLDRFIFEDQIRPQDREELLRALLLKHSHAGELEALGGVKPAVLTRSGDPSQPLLPQHSSLETQLFCEQGDGGTEGHSPSGILEKIPPDSEATLVLVGRADFLEQPVLGFVRLQEAAELEAVELPVPIRFLFVLLGPEAPHIDYTQLGRAAATLMSERVFRIDAYMAQSRGELLHSLEGFLDCSLVLPPTDAPSEQALLSLVPVQRELLRRRYQSSPAKPDSSFYKGLDLNGGPDDPLQQTGQLFGGLVRDIRRRYPYYLSDITDAFSPQVLAAVIFIYFAALSPAITFGGLLGEKTRNQMGVSELLISTAVQGILFALLGAQPLLVVGFSGPLLVFEEAFFSFCETNGLEYIVGRVWIGFWLILLVVLVVAFEGSFLVRFISRYTQEIFSFLISLIFIYETFSKLIKIFQDHPLQKTYNYNVLMVPKPQGPLPNTALLSLVLMAGTFFFAMMLRKFKNSSYFPGKLRRVIGDFGVPISILIMVLVDFFIQDTYTQKLSVPDGFKVSNSSARGWVIHPLGLRSEFPIWMMFASALPALLVFILIFLESQITTLIVSKPERKMVKGSGFHLDLLLVVGMGGVAALFGMPWLSATTVRSVTHANALTVMGKASTPGAAAQIQEVKEQRISGLLVAVLVGLSILMEPILSRIPLAVLFGIFLYMGVTSLSGIQLFDRILLLFKPPKYHPDVPYVKRVKTWRMHLFTGIQIICLAVLWVVKSTPASLALPFVLILTVPLRRVLLPLIFRNVELQCLDADDAKATFDEEEGRDEYDEVAMPV
modifications: extensive and variable glycosylation (sites not given)
In the case of B1, the “stoichiometry N” value is reported as 2 and 4.
